In patent US20250154231A1:
Read-outs that look alike come from different tables or passages of the source.

Assays:
Test in all cases: cell-based or functional assay
[1] = target: SARS-CoV-2 spike (S) protein, synthetic variant "BA.4+all"
[2] = target: SARS-CoV-2 spike (S) protein, Omicron BA.2 + D339H (SARS-CoV-2) (UniProt P0DTC2)
[3] = target: SARS-CoV-2 spike (S) protein, Omicron BA.2 + N460K (SARS-CoV-2) (UniProt P0DTC2)
[4] = target: SARS-CoV-2 spike (S) protein, Omicron BA.2 + G446S (SARS-CoV-2) (UniProt P0DTC2)
[5] = target: SARS-CoV-2 spike (S) protein, Omicron BA.2 + N460K (SARS-CoV-2) (UniProt P0DTC2); remark: listed apart in the source
[6] = target: SARS-CoV-2 Omicron BA.2 spike (S) protein, pseudovirus construct (SARS-CoV-2) (UniProt P0DTC2)
[7] = target: SARS-CoV-2 Victoria spike (S) protein (SARS-CoV-2) (UniProt P0DTC2)
[8] = target: SARS-CoV-2 Omicron BA.1.1 spike (S) protein, pseudovirus construct (SARS-CoV-2) (UniProt P0DTC2)
[9] = target: SARS-CoV-2 Omicron BA.1 spike (S) protein, pseudovirus construct (SARS-CoV-2) (UniProt P0DTC2)
[10] = target: SARS-CoV-2 Omicron BA.3 spike (S) protein, pseudovirus construct (SARS-CoV-2) (UniProt P0DTC2)

Sequence of Omi-32 (antibody) (VH): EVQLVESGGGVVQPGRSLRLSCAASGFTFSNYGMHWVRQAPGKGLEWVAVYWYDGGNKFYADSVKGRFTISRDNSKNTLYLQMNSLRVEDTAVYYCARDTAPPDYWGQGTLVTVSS
Sequence of Omi-32 (antibody) (VL): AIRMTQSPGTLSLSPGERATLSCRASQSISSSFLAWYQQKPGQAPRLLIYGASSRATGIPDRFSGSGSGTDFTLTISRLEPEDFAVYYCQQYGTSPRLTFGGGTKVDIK
Sequence of Omi-18 (antibody) (VH): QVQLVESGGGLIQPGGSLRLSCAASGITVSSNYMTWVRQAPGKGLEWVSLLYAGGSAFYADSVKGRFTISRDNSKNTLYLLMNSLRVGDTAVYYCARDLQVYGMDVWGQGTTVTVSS
Sequence of Omi-18 (antibody) (VL): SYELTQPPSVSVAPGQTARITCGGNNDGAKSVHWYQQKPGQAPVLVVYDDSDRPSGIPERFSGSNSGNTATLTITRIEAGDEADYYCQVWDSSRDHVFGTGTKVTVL
Sequence of Omi-12 (antibody) (VH): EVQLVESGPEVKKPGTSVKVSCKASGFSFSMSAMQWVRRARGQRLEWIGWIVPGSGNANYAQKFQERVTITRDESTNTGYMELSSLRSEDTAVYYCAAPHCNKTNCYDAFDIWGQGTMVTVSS
Sequence of Omi-12 (antibody) (VL): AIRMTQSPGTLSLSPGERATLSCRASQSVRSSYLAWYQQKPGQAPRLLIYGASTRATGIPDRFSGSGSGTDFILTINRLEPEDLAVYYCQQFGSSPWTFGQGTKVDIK
Sequence of Omi-29 (antibody) (VH): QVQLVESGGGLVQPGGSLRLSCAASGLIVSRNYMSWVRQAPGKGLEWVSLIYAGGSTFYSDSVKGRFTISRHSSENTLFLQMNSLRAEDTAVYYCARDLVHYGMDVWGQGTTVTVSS
Sequence of Omi-29 (antibody) (VL): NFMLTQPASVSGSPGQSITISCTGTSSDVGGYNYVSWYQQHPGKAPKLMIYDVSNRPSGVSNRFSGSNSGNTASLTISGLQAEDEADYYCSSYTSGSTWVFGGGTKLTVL
Sequence of Omi-42 (antibody) (VH): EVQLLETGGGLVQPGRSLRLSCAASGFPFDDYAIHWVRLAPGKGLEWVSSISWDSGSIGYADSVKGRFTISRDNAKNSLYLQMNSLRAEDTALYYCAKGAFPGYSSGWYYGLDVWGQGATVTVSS
Sequence of Omi-42 (antibody) (VL): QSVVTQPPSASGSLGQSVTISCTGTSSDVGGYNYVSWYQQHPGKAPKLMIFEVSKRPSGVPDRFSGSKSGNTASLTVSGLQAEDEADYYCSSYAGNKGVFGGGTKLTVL
Sequence of AZD8895 (antibody) (VH): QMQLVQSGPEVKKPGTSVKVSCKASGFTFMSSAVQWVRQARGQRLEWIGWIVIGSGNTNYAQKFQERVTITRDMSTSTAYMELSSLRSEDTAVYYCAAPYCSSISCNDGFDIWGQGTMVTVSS
Sequence of AZD8895 (antibody) (VL): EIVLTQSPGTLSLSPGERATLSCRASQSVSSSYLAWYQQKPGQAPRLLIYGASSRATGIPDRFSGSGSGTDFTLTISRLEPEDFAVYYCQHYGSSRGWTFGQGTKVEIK

Substance | IC50, pseudoviral neutralization [1] [µg/mL] | pseudovirus neutralisation IC50 [2] [µg/mL] | pseudovirus neutralisation IC50 [3] [µg/mL] | pseudovirus neutralisation IC50 [4] [µg/mL] | pseudovirus neutralisation IC50 [5] [µg/mL] | further results
REGN10933 (antibody) | > 10 |  |  |  |  | 
AZD7442 (a combination of AZD8895 and AZD1061) | > 10 |  |  |  |  | 
AZD8895 (antibody) | > 10 |  |  |  |  | 
Omi-32 (antibody) | > 10 | 0.683 | 2.34 | 0.33 | 2.34 | 
AZD1061 (antibody) | > 10 |  |  |  |  | 
Ly-CoV555 (antibody) | > 10 |  |  |  |  | 
Omi-12 (antibody) | > 10 | 0.003 | 0.011 | 0.003 | 0.011 | 
Ly-CoV16 (antibody) | > 10 |  |  |  |  | 
LY-CoV1404 (bebtelovimab) (antibody) | > 10 |  |  |  |  | 
ADG20 (antibody) | > 10 |  |  |  |  | 
Omi-03 (antibody) | 0.432 | 0.006 | 0.401 | 0.005 | 0.401 | 
Omi-42 (antibody) | 0.008 | 0.011 | 0.007 | 0.016 | 0.007 | 
S309 (antibody) | 0.584 |  |  |  |  | 
Omi-29 (antibody) | > 10 | 0.018 | > 10 | 0.024 | > 10 | 
REGN10987 (antibody) | > 10 |  |  |  |  | 
Omi-18 (antibody) | 3.61 | 0.003 | 0.014 | 0.003 | 0.014 | 
Known Antibody E (AZD7442) |  |  |  |  |  | IC50 (ug/ml), pseudovirus [6]: 0.008 µg/mL; IC50 (ug/ml), pseudovirus [7]: 0.001 µg/mL; IC50 (ug/ml), pseudovirus [8]: 0.806 µg/mL; IC50 (ug/ml), pseudovirus [9]: 0.232 µg/mL; IC50 (ug/ml), pseudovirus [10]: 0.065 µg/mL
